The values that follow come from paper PMC11995678.

Series [1] has as its target T1, His662 (UniProt position 662, MKQVKHIPESK). The note with it: cited from earlier work.
The target of series [2] is T1, His662. Nature of the series: NMR. Conditions: 35 °C (default for NMR experiments; not restated for the titration), 50 mM NaCl, 20 mM Tris, 10 mM CHAPS, no CaCl2, formate and imidazole included as internal pH indicators, pH adjusted with 1 M HCl, Ca2+-free (apo), Ca2+-binding-deficient mutant, folded.

Like-named read-outs stand apart in the source and are kept apart here.

What is called pKa is the negative logarithm of the acid dissociation constant. Take “LETM1 F-EF-hand domain, wild type (Homo sapiens)”: the pKa in series [1] (Ca2+-bound (holo) WT) is recorded as ~6.28; in series [1] (Ca2+-free (apo) WT), ~6.39.

In series [2], “LETM1 F-EF-hand domain D676A/N678A (AEA) mutant (Homo sapiens; D676A;N678A)” came in with a pKa of 6.58 ± 0.06.
